{"source": "patent US8802630B2", "about": "“Method of treating brain injury” (Buddhist Tzu Chi General Hospital, priority 2011, dated 2014)", "key": {"[1]": {"tested_on": "collagenase-induced ICH rats", "experiment": "modified Neurological Severity Score (mNSS), collagenase-induced ICH model", "type": "in vivo", "description": "The ICH refers to hemorrhage in the striatum, a part of the brain. Male Sprague-Dawley rats (250-300 g) anesthetized with chloral hydrate (0.4 g kg^−1 i.p., Sigma-Aldrich, St. Louis, Mo., USA). The blood infusion model of ICH was induced by intrastriatal (0.0 mm posterior, 3.0 mm right, 5.0 mm ventral to bregma skull surface) infusion of autologous blood (100 μl within 1 minute) and stereotaxic administration of bacterial collagenase VII-S into the striatum (MacLellan et al. 2008; Rosenberg et al. 1990). Briefly, bacterial collagenase VII-S (0.23 U in 1.0 μl sterile saline, Sigma-Aldrich) was infused into the striatum over a period of 10 minutes. The needle was kept in place for another 10 minutes to prevent backflow. The craniotomies were sealed with bone wax. The rats were allowed to recover in separate cages at room temperature.\nRats were used in the assessment of the neurological abnormalities with a modified Neurological Severity Score (mNSS) method (Chen et al. 2001) by an investigator blinded to the experimental treatment scheme. The mNSS is a composite test of motor, sensory, and balance functions. The assessment was performed before and on 1, 3 and 7 days after the ICH. Neurological functions were graded on a scale of 0-18 (normal score, 0; maximal deficit score, 18)."}, "[2]": {"experiment": "Evaluation of physiological parameters (MABP, heart rate, rectal temperature, blood gases)", "type": "in vivo, rats", "details": "for RT (rectal temperature) / pCO2 / pO2 / pH: ICH + L-UCN 2.5 μg/kg i.p.; for decrease in MABP / increase in HR: 1.0 to 3.0 h post-treatment; for pH: arterial blood", "description": "Rats were randomly assigned for evaluation of physiological parameters including mean arterial blood pressure, blood gases, body weight changes and body temperature. Under urethane (urethane (1.0 g/kg bodyweight, intraperitoneally, Sigma-Aldrich) anesthesia, a femoral artery was cannulated with a PE-50 polyethylene tube for fluid supplementation and monitoring of arterial blood pressure and blood gas. Arterial blood pressure was recorded through an amplifier (MP35, BIOPAC system, Inc.) and stored in a PC computer. Body temperature (rectal temperature) was automatically maintained at 37.5±0.5° C. by a rectal temperature sensor and a heating pad (CMA-150, Sweden). The physiological parameters were measured before (baseline) and after treatment (UCN or Saline) 0.5, 1 and 3 hours."}, "[3]": {"tested_on": "collagenase-induced ICH rats", "experiment": "Assessment of hemorrhagic volume (spectrophotometric assay)", "type": "in vivo", "description": "Rats were randomly used in assessment of hemorrhagic volume at 24 hours (day 1) post-ICH. The accumulated hemorrhagic volume was quantified by a spectrophotometric assay as reported by Park et al., with minor modification (Park et al., 2005). Briefly, both contralateral and ipsilateral hemispheres were obtained after transcardial perfusion. PBS was added to the individual hemispheres to make-up a total of 3 ml volume for homogenization and centrifugation (15000 g, 30 minutes). The supernatant (40 μl) was reacted with Drabkin's reagent (160 μl, Sigma) for 15 minutes at room temperature. Optical density was measured at 540 nm with a spectrophotometer (Molecular Devices OptiMax, USA). Equivalent hemorrhage volume (μl) of the supernatant was calculated from a standard curve obtained with known amounts of the blood."}, "[4]": {"tested_on": "collagenase-induced ICH rats", "experiment": "Morphometric measurement of lesion volume / injured area", "type": "in vivo", "details": "for injured area: UCN 5 μg i.c.v.", "source_text": "[…] The brains were cut coronally through the needle entry site (identifiable on the brain surface), and then serially sliced (2-mm thickness) anteriorly and posteriorly to the needle entry site. Digital photographs of the serial slices were taken and lesion volume was computed using image analyzer program (Image J, NIH). The total lesion volume (mm^3) was computed by summing the residual blood clot and damaged area in each section and multiplying by the distance between sections (Jung et al., 2004)."}, "[5]": {"tested_on": "collagenase-induced ICH rats", "experiment": "Assessment of blood-brain barrier disruption (Evans blue extravasation)", "type": "in vivo", "description": "Rats were randomly used in assessment of the vascular permeability of BBB with a modified Evans blue extravasation method (Esen et al., 2005). Briefly, 70 hours post-ICH, rats were anesthetized with chloral hydrate (0.4 g/kg) and infused, via the right femoral vein with 37° C. Evans blue dyes (2% in 0.9% normal saline, 4 ml/kg) over 5 minutes. Two hours later, the rats were perfused with 300 ml normal saline to wash out any remaining dye in the blood vessels and then brains were removed and sectioned into 2 mm thickness by a rodent brain matrix. Coronal brain sections were taken starting at +2 mm and ending at −4 mm from Bregma. BBB permeability was evaluated in the striatum, cortex and cerebellum. The cerebellum was used as an internal control. Each portion was weighed immediately and placed in 1 ml of 0.9% normal saline for homogenization of the sample. For protein precipitation, 1 ml of 60% trichloroacetic acid solution was added and vortexed for 2 minutes. The mixture was subsequently cooled for 30 minutes and centrifuged (1500 g at 4° C.) for another 30 minutes. The absorbance of Evans blue in the supernatant was then measured with a spectrophotometer (Molecular Devices OptiMax, USA) at 610 nm The dye concentration was expressed as μg/g of tissue weight and calculated from a standard curve obtained from known amounts of the dye."}, "[6]": {"details": "UCN 2.5 μg/kg i.p. 1 h after ICH"}}, "note": "Where no end group is shown, it is not given here."}
{"substance": "urocortin (DNPSLSIDLTFHLLRTLLELARTQSQRERAEQNRIIFDSV; ends and bridges not checked; UniProt P55089 83-122, looked up) [UCN, a 40-amino-acid endogenous neuropeptide, belongs to the corticotrophin releasing hormone (CRH) family]", "values": [{"measurement": "mNSS", "setting": "[1]; H-UCN 25 μg/kg i.p. 60 min post-ICH, day 1, scale 0-18", "value": "6.55±0.26"}, {"measurement": "mNSS", "setting": "[1]; H-UCN 25 μg/kg i.p. 60 min post-ICH, day 3, scale 0-18", "value": "4.68±0.29"}, {"measurement": "mNSS", "setting": "[1]; H-UCN 25 μg/kg i.p. 60 min post-ICH, day 7, scale 0-18", "value": "2.00±0.26"}, {"measurement": "mNSS", "setting": "[1]; L-UCN 2.5 μg/kg i.p. 60 min post-ICH, day 1, scale 0-18", "value": "3.86±0.70"}, {"measurement": "mNSS", "setting": "[1]; L-UCN 2.5 μg/kg i.p. 60 min post-ICH, day 3, scale 0-18", "value": "1.71±0.55"}, {"measurement": "mNSS", "setting": "[1]; L-UCN 2.5 μg/kg i.p. 60 min post-ICH, day 7, scale 0-18", "value": "1.63±0.46"}, {"measurement": "mNSS", "setting": "[1]; UCN 0.05, 0.5 and 5 μg i.c.v. 1 h after collagenase ICH, over 7 days, most effective at 5 μg, vs ICH+Saline", "value": "dose-dependent reduction in the mNSS"}, {"measurement": "RT (rectal temperature)", "setting": "[2]; 0.5 h post-treatment", "value": "36.95 ± 0.03", "unit": "°C"}, {"measurement": "pCO2", "setting": "[2]; 0.5 h post-treatment", "value": "45.07 ± 1.05", "unit": "mmHg"}, {"measurement": "pO2", "setting": "[2]; 0.5 h post-treatment", "value": "105.24 ± 6.00", "unit": "mmHg"}, {"measurement": "RT (rectal temperature)", "setting": "[2]; 1.0 h post-treatment", "value": "37.00 ± 0.05", "unit": "°C"}, {"measurement": "pCO2", "setting": "[2]; 1.0 h post-treatment", "value": "42.60 ± 2.44", "unit": "mmHg"}, {"measurement": "pO2", "setting": "[2]; 1.0 h post-treatment", "value": "107.28 ± 5.35", "unit": "mmHg"}, {"measurement": "RT (rectal temperature)", "setting": "[2]; 3.0 h post-treatment", "value": "36.97 ± 0.02", "unit": "°C"}, {"measurement": "pCO2", "setting": "[2]; 3.0 h post-treatment", "value": "43.25 ± 1.59", "unit": "mmHg"}, {"measurement": "pO2", "setting": "[2]; 3.0 h post-treatment", "value": "107.90 ± 5.59", "unit": "mmHg"}, {"measurement": "RT (rectal temperature)", "setting": "[2]; baseline", "value": "36.92 ± 0.05", "unit": "°C"}, {"measurement": "pCO2", "setting": "[2]; baseline", "value": "46.73 ± 1.80", "unit": "mmHg"}, {"measurement": "pO2", "setting": "[2]; baseline", "value": "100.00 ± 4.40", "unit": "mmHg"}, {"measurement": "decrease in MABP", "setting": "[2]; [6]", "value": "≤ 25", "unit": "mm Hg"}, {"measurement": "increase in HR", "setting": "[2]; [6]", "value": "≤ 35", "unit": "beats/min"}, {"measurement": "mean arterial blood pressure", "setting": "[2]; UCN 5 μg i.c.v., over 3 hours", "value": "no significant difference"}, {"measurement": "fall in mean arterial blood pressure (MABP)", "setting": "[2]; UCN 25 μg/kg body weight, bolus intraperitoneal injection", "value": "40-50 mmHg"}, {"measurement": "fall of MABP", "setting": "[2]; UCN 25 μg/kg body weight, bolus intravenous injection, vs intraperitoneal", "value": "much more abrupt fall of MABP"}, {"measurement": "decrease in MABP", "setting": "[2]; UCN 25 μg/kg i.p.", "value": "≤ 40", "unit": "mm Hg"}, {"measurement": "increase in HR", "setting": "[2]; UCN 25 μg/kg i.p.", "value": "≤ 45", "unit": "beats/min"}, {"measurement": "pH", "setting": "[2]; 0.5 h post-treatment", "value": "7.39 ± 0.01"}, {"measurement": "pH", "setting": "[2]; 1.0 h post-treatment", "value": "7.42 ± 0.01"}, {"measurement": "pH", "setting": "[2]; 3.0 h post-treatment", "value": "7.42 ± 0.01"}, {"measurement": "pH", "setting": "[2]; baseline", "value": "7.37 ± 0.02"}, {"measurement": "hemorrhagic volume", "setting": "[3]; L-UCN 2.5 μg/kg i.p., day 1 post-ICH, vs ICH+Saline", "value": "not significantly different"}, {"measurement": "accumulated hemorrhagic volume", "setting": "[3]; UCN 5 μg i.c.v., 24 h post-ICH, vs ICH+saline", "value": "not significantly different"}, {"measurement": "lesion volume", "setting": "[4]; L-UCN 2.5 μg/kg i.p., day 3 post-ICH", "value": "23.73±1.79", "unit": "mm^3"}, {"measurement": "injured area", "setting": "[4]; day 3 after ICH", "value": "16.14±1.22", "unit": "mm^2"}, {"measurement": "injured area", "setting": "[4]; day 7 after ICH", "value": "5.62±1.04", "unit": "mm^2"}, {"measurement": "Evans blue dye concentration", "setting": "[5]; cerebellum, contralateral cerebral cortex and striatum, L-UCN 2.5 μg/kg i.p., day 3", "value": "not changed"}, {"measurement": "Evans blue dye concentration", "setting": "[5]; contralateral striatum, contralateral and ipsilateral cortices, cerebellum, UCN 5 μg i.c.v., day 3, vs ICH+Saline", "value": "not different"}, {"measurement": "Evans blue dye concentration", "setting": "[5]; ipsilateral cortex, L-UCN 2.5 μg/kg i.p., day 3 post-ICH", "value": "0.38 ± 0.05", "unit": "µg/g"}, {"measurement": "Evans blue dye concentration", "setting": "[5]; ipsilateral striatum, L-UCN 2.5 μg/kg i.p., day 3 post-ICH", "value": "1.73 ± 0.36", "unit": "µg/g"}, {"measurement": "Evans blue concentration", "setting": "[5]; ipsilateral striatum, UCN 5 μg i.c.v., day 3 after ICH", "value": "1.24 ± 0.31", "unit": "µg/g"}]}
